Source: publication PMC3778555
Read-outs that look alike come from different tables or passages of the source.

Experiments:
Test in all cases: EMSA
ΔN20C17-HMGA1a [1] = molecular target: T1, ΔN20C17-HMGA1a (human, UniProt P17096 21-91)
ΔN20C17-HMGA1a [2] = molecular target: T1, ΔN20C17-HMGA1a; remark: listed apart in the source
ΔN20C17-HMGA1b [3] = molecular target: T2, ΔN20C17-HMGA1b (human, UniProt P17096-2 21-80)
ΔN20C17-HMGA1a [4] = molecular target: T1, ΔN20C17-HMGA1a; remark: listed apart in the source
ΔN20C17-HMGA1a [5] = molecular target: T1, ΔN20C17-HMGA1a; remark: listed apart in the source
ΔN20C17-HMGA1a [6] = molecular target: T1, ΔN20C17-HMGA1a; remark: listed apart in the source
ΔN20C17-HMGA1a [7] = molecular target: T1, ΔN20C17-HMGA1a; remark: listed apart in the source
ΔN20C17-HMGA1b [8] = molecular target: T2, ΔN20C17-HMGA1b; remark: listed apart in the source

B1: A18-DNA (dsDNA)
DNA 1: CCCAAAAAAAAAAAAAAAAAACC
DNA 2: GGTTTTTTTTTTTTTTTTTTGGG
binding result (ΔN20C17-HMGA1a [1]): binds

B2: A19-DNA (dsDNA)
DNA 1: CCCAAAAAAAAAAAAAAAAAAACC
DNA 2: GGTTTTTTTTTTTTTTTTTTTGGG
binding result (ΔN20C17-HMGA1a [2]): binds
binding result (ΔN20C17-HMGA1b [3]): binds

B3: A5-DNA (dsDNA)
DNA 1: GGCCCCGCGAAAAACCCGGCGGG
DNA 2: CCCGCCGGGTTTTTCGCGGGGCC
binding result (ΔN20C17-HMGA1a [4]): binds

B4: T9A9-DNA (dsDNA)
DNA 1: GCTTTTTTTTTAAAAAAAAAGC
DNA 2: GCTTTTTTTTTAAAAAAAAAGC
binding result (ΔN20C17-HMGA1a [5]): binds

B5: A9T9-DNA (dsDNA)
DNA 1: CGAAAAAAAAATTTTTTTTTCG
DNA 2: CGAAAAAAAAATTTTTTTTTCG
binding result (ΔN20C17-HMGA1a [6]): binds

B6: A5T5-DNA (dsDNA)
DNA 1: CGAAAAATTTTTCG
DNA 2: CGAAAAATTTTTCG
binding result (ΔN20C17-HMGA1a [7]): binds
binding result (ΔN20C17-HMGA1b [8]): binds
